Results from US20140087995A1 (published 2014).
Numbered stars: 1 amine (or outer) side, 2 acyl side, 3 side chain; on linkers, the order of the positions; unused ones are H or OH. Bridge positions count the residues as written; N and C are the ends. Side chains are listed from the residue outwards. Ends that are not written are not given here. * marks the point of attachment. C20 diacid = O=C(O)CCCCCCCCCCCCCCCCCCC(=O)*; γGlu = O=C(O)[C@H](CCC(=O)[*:2])N[*:1]

T1: rat calcitonin receptor (rat, UniProt P32214 25-516)
T1 construct: whole, on cells; Used as membranes prepared from the transfected cells; also called rCTR; rCT
T1 sequence (looked up): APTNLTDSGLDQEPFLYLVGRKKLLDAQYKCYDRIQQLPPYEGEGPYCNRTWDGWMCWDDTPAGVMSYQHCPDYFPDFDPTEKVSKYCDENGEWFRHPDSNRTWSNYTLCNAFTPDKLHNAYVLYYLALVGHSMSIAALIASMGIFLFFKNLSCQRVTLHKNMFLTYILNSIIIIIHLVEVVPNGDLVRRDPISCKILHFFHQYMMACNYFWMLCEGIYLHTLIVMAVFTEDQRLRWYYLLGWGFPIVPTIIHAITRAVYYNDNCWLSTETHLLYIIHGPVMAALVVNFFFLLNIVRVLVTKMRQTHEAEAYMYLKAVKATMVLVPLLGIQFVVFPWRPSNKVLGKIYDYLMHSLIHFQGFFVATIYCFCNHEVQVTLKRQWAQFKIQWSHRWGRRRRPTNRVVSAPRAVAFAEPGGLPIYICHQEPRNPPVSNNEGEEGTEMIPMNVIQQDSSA

T2: human calcitonin receptor (human, UniProt P30988 25-474)
T2 construct: whole, on cells; Used as membranes prepared from the transfected cells; also called hCTR; hCT
T2 sequence (looked up): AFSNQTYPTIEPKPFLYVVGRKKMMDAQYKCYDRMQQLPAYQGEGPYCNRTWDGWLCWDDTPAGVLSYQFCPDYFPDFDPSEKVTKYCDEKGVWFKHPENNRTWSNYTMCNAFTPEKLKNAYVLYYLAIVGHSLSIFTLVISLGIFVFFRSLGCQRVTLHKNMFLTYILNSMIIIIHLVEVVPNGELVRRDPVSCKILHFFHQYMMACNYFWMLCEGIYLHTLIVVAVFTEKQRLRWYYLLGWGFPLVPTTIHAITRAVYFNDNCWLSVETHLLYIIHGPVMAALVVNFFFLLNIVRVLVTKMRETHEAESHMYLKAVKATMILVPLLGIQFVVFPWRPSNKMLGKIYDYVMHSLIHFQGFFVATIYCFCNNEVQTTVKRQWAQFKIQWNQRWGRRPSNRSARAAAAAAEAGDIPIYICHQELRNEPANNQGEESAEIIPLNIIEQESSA


Assays:
[1] = biological target: T1, rat calcitonin receptor; test: SPA competition with 125I-calcitonin, membranes with rat calcitonin receptor (Assay VIII)
[2] = biological target: T1, rat calcitonin receptor; test: ratio of binding IC50 at rat calcitonin receptor to IC50 at rat amylin receptor (reference)
[3] = biological target: T2, human calcitonin receptor; test: ratio of binding IC50 at human calcitonin receptor to IC50 at human amylin receptor (reference)
In short: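 Competition binding by SPA with cell membranes (35 ng/μL) and SPA beads in 50 mM Hepes pH 7.4 with 1 mM CaCl2, 5 mM MgCl2, 0.1% OA and 0.02% Tween20. Incubated 120 min at 25 °C with shaking, then counted.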

Binder | IC50 [1] | Ratio rCT/rAmylin binding [2] | Ratio hCT/hAmylin binding [3]
K([γGlu-C20 diacid])CNTATCATQRLARFLRHSSPNFGAIPSSTNVGSNTY-NH2 (disulfide 2-7; N-terminus assumed; SMILES CC[C@H](C)[C@H](NC(=O)[C@H](C)NC(=O)CNC(=O)[C@H](Cc1ccccc1)NC(=O)[C@H](CC(N)=O)NC(=O)[C@@H]1CCCN1C(=O)[C@H](CO)NC(=O)[C@H](CO)NC(=O)[C@H](Cc1c[nH]cn1)NC(=O)[C@H](CCCNC(=N)N)NC(=O)[C@H](CC(C)C)NC(=O)[C@H](Cc1ccccc1)NC(=O)[C@H](CCCNC(=N)N)NC(=O)[C@H](C)NC(=O)[C@H](CC(C)C)NC(=O)[C@H](CCCNC(=N)N)NC(=O)[C@H](CCC(N)=O)NC(=O)[C@@H](NC(=O)[C@H](C)NC(=O)[C@@H]1CSSC[C@H](NC(=O)[C@@H](N)CCCCNC(=O)CC[C@H](NC(=O)CCCCCCCCCCCCCCCCCCC(=O)O)C(=O)O)C(=O)N[C@@H](CC(N)=O)C(=O)N[C@@H]([C@@H](C)O)C(=O)N[C@@H](C)C(=O)N[C@@H]([C@@H](C)O)C(=O)N1)[C@@H](C)O)C(=O)N1CCC[C@H]1C(=O)N[C@@H](CO)C(=O)N[C@@H](CO)C(=O)N[C@H](C(=O)N[C@@H](CC(N)=O)C(=O)N[C@H](C(=O)NCC(=O)N[C@@H](CO)C(=O)N[C@@H](CC(N)=O)C(=O)N[C@H](C(=O)N[C@@H](Cc1ccc(O)cc1)C(N)=O)[C@@H](C)O)C(C)C)[C@@H](C)O, Analogue of human amylin; disulfide and C-terminal amide as told for h-amylin; also called compound 83) [N^ε1-[(4S)-4-carboxy-4-(19-carboxynonadecanoylamino)butanoyl]-[Arg14,Arg17,Pro21,Pro27]-h-amylin] | 140 nM | 49.7 | 146
K([γGlu-C20 diacid])CNTATCATQRLARFLRHSSPNFGAIPSSTNVGPNTY-NH2 (disulfide 2-7; N-terminus assumed; SMILES CC[C@H](C)[C@H](NC(=O)[C@H](C)NC(=O)CNC(=O)[C@H](Cc1ccccc1)NC(=O)[C@H](CC(N)=O)NC(=O)[C@@H]1CCCN1C(=O)[C@H](CO)NC(=O)[C@H](CO)NC(=O)[C@H](Cc1c[nH]cn1)NC(=O)[C@H](CCCNC(=N)N)NC(=O)[C@H](CC(C)C)NC(=O)[C@H](Cc1ccccc1)NC(=O)[C@H](CCCNC(=N)N)NC(=O)[C@H](C)NC(=O)[C@H](CC(C)C)NC(=O)[C@H](CCCNC(=N)N)NC(=O)[C@H](CCC(N)=O)NC(=O)[C@@H](NC(=O)[C@H](C)NC(=O)[C@@H]1CSSC[C@H](NC(=O)[C@@H](N)CCCCNC(=O)CC[C@H](NC(=O)CCCCCCCCCCCCCCCCCCC(=O)O)C(=O)O)C(=O)N[C@@H](CC(N)=O)C(=O)N[C@@H]([C@@H](C)O)C(=O)N[C@@H](C)C(=O)N[C@@H]([C@@H](C)O)C(=O)N1)[C@@H](C)O)C(=O)N1CCC[C@H]1C(=O)N[C@@H](CO)C(=O)N[C@@H](CO)C(=O)N[C@H](C(=O)N[C@@H](CC(N)=O)C(=O)N[C@H](C(=O)NCC(=O)N1CCC[C@H]1C(=O)N[C@@H](CC(N)=O)C(=O)N[C@H](C(=O)N[C@@H](Cc1ccc(O)cc1)C(N)=O)[C@@H](C)O)C(C)C)[C@@H](C)O, Analogue of human amylin; disulfide and C-terminal amide as told for h-amylin; also called compound 65) | 108 nM | 93.2 | 82.4

Further binders by falling IC50 [1], results first:

IC50 [1] | Ratio rCT/rAmylin binding [2] | Ratio hCT/hAmylin binding [3] | Binder
205 nM | 137 | 118 | K([γGlu-C20 diacid])CNTATCATQRLANFLRHSSPNFGAIPSSTNVGHNTY-NH2 (disulfide 2-7; N-terminus assumed; SMILES CC[C@H](C)[C@H](NC(=O)[C@H](C)NC(=O)CNC(=O)[C@H](Cc1ccccc1)NC(=O)[C@H](CC(N)=O)NC(=O)[C@@H]1CCCN1C(=O)[C@H](CO)NC(=O)[C@H](CO)NC(=O)[C@H](Cc1c[nH]cn1)NC(=O)[C@H](CCCNC(=N)N)NC(=O)[C@H](CC(C)C)NC(=O)[C@H](Cc1ccccc1)NC(=O)[C@H](CC(N)=O)NC(=O)[C@H](C)NC(=O)[C@H](CC(C)C)NC(=O)[C@H](CCCNC(=N)N)NC(=O)[C@H](CCC(N)=O)NC(=O)[C@@H](NC(=O)[C@H](C)NC(=O)[C@@H]1CSSC[C@H](NC(=O)[C@@H](N)CCCCNC(=O)CC[C@H](NC(=O)CCCCCCCCCCCCCCCCCCC(=O)O)C(=O)O)C(=O)N[C@@H](CC(N)=O)C(=O)N[C@@H]([C@@H](C)O)C(=O)N[C@@H](C)C(=O)N[C@@H]([C@@H](C)O)C(=O)N1)[C@@H](C)O)C(=O)N1CCC[C@H]1C(=O)N[C@@H](CO)C(=O)N[C@@H](CO)C(=O)N[C@H](C(=O)N[C@@H](CC(N)=O)C(=O)N[C@H](C(=O)NCC(=O)N[C@@H](Cc1c[nH]cn1)C(=O)N[C@@H](CC(N)=O)C(=O)N[C@H](C(=O)N[C@@H](Cc1ccc(O)cc1)C(N)=O)[C@@H](C)O)C(C)C)[C@@H](C)O, Analogue of human amylin; disulfide and C-terminal amide as told for h-amylin; also called compound 77) [N^ε1-[(4S)-4-carboxy-4-(19-carboxynonadecanoylamino)butanoyl]-[Arg17,Pro21,Pro27,His34]-h-amylin]
124 nM | 35.6 | 157 | K([γGlu-C20 diacid])CNTATCATQRLARFLRHSSPNFGAIPSSTPVGSNTY-NH2 (disulfide 2-7; N-terminus assumed; SMILES CC[C@H](C)[C@H](NC(=O)[C@H](C)NC(=O)CNC(=O)[C@H](Cc1ccccc1)NC(=O)[C@H](CC(N)=O)NC(=O)[C@@H]1CCCN1C(=O)[C@H](CO)NC(=O)[C@H](CO)NC(=O)[C@H](Cc1c[nH]cn1)NC(=O)[C@H](CCCNC(=N)N)NC(=O)[C@H](CC(C)C)NC(=O)[C@H](Cc1ccccc1)NC(=O)[C@H](CCCNC(=N)N)NC(=O)[C@H](C)NC(=O)[C@H](CC(C)C)NC(=O)[C@H](CCCNC(=N)N)NC(=O)[C@H](CCC(N)=O)NC(=O)[C@@H](NC(=O)[C@H](C)NC(=O)[C@@H]1CSSC[C@H](NC(=O)[C@@H](N)CCCCNC(=O)CC[C@H](NC(=O)CCCCCCCCCCCCCCCCCCC(=O)O)C(=O)O)C(=O)N[C@@H](CC(N)=O)C(=O)N[C@@H]([C@@H](C)O)C(=O)N[C@@H](C)C(=O)N[C@@H]([C@@H](C)O)C(=O)N1)[C@@H](C)O)C(=O)N1CCC[C@H]1C(=O)N[C@@H](CO)C(=O)N[C@@H](CO)C(=O)N[C@H](C(=O)N1CCC[C@H]1C(=O)N[C@H](C(=O)NCC(=O)N[C@@H](CO)C(=O)N[C@@H](CC(N)=O)C(=O)N[C@H](C(=O)N[C@@H](Cc1ccc(O)cc1)C(N)=O)[C@@H](C)O)C(C)C)[C@@H](C)O, Analogue of human amylin; disulfide and C-terminal amide as told for h-amylin; also called compound 63)
35.5 nM | 21.5 | 46.1 | K([γGlu-C20 diacid])CNTATCATQRLANFLRHSSPNFGAIPSSTNVGRNTY-NH2 (disulfide 2-7; N-terminus assumed; SMILES CC[C@H](C)[C@H](NC(=O)[C@H](C)NC(=O)CNC(=O)[C@H](Cc1ccccc1)NC(=O)[C@H](CC(N)=O)NC(=O)[C@@H]1CCCN1C(=O)[C@H](CO)NC(=O)[C@H](CO)NC(=O)[C@H](Cc1c[nH]cn1)NC(=O)[C@H](CCCNC(=N)N)NC(=O)[C@H](CC(C)C)NC(=O)[C@H](Cc1ccccc1)NC(=O)[C@H](CC(N)=O)NC(=O)[C@H](C)NC(=O)[C@H](CC(C)C)NC(=O)[C@H](CCCNC(=N)N)NC(=O)[C@H](CCC(N)=O)NC(=O)[C@@H](NC(=O)[C@H](C)NC(=O)[C@@H]1CSSC[C@H](NC(=O)[C@@H](N)CCCCNC(=O)CC[C@H](NC(=O)CCCCCCCCCCCCCCCCCCC(=O)O)C(=O)O)C(=O)N[C@@H](CC(N)=O)C(=O)N[C@@H]([C@@H](C)O)C(=O)N[C@@H](C)C(=O)N[C@@H]([C@@H](C)O)C(=O)N1)[C@@H](C)O)C(=O)N1CCC[C@H]1C(=O)N[C@@H](CO)C(=O)N[C@@H](CO)C(=O)N[C@H](C(=O)N[C@@H](CC(N)=O)C(=O)N[C@H](C(=O)NCC(=O)N[C@@H](CCCNC(=N)N)C(=O)N[C@@H](CC(N)=O)C(=O)N[C@H](C(=O)N[C@@H](Cc1ccc(O)cc1)C(N)=O)[C@@H](C)O)C(C)C)[C@@H](C)O, Analogue of human amylin; disulfide and C-terminal amide as told for h-amylin; also called compound 79) [N^ε1-[(4S)-4-carboxy-4-(19-carboxynonadecanoylamino)butanoyl]-[Arg17,Pro21,Pro27,Arg34]-h-amylin]
